In PMC2602759:
Where “and” joins values, the source holds several entries; their conditions need not be identical. Equal entries are not always repeated.

Experiments:
[1] = molecular target: HIV-1 integrase (IN) (HIV-1); assay: SEC
[2] = molecular target: HIV-1 integrase (IN) (HIV-1); assay: cross-linking

HIV-1 integrase (IN) (enzyme)
stoichiometry N [1]: 2 and 4
stoichiometry N [2]: 2
